In patent US20080318297A1, “Inhibition of Infiltration, and Cell Killing Agent” (priority 2004, published 2008):

Legend:
CD43 antigen = CD43 antigen expression in NALL1 cells by flow cytometer (MEM59 antibody); type: cell-based, human; settings: for CD43 expression: siRNA introduced by lentivirus pLL3.7 vector, GFP positive fraction, vs vacant vector
From the text: These siRNAs were expressed in cells to confirm the effects. For introduction of siRNA into cells, a lentivirus system (product of Invitrogen Corporation) which is able to gene introduction into blood cells at high efficiency and an expression vector for lentivirus pLL3.7 (Nat. Genet., 33, 401-406 (2003)) were used. In the pLL3.7 vector, it is possible to introduce a sense/antisense siRNA sequence including a hair-pin structure downstream of a U6 promoter. The pLL3.7 vector expresses Green Fluorescent Protein (GFP) by a CMV promoter at the same time. Accordingly, oligonucleotide including the sense chain, antisense chain, and hair-pin structure of the designed siRNA sequence (CD43-#1 to #5, CD43-$1 to $5; alphabet f at the end of the name indicates the sense chain, and r indicates the antisense chain) was chemically synthesized and then cloned to pLL3.7 vector, followed by introduction into 293 cells together with a vector for virus particle production. After that, siRNA expression lentivirus vector was collected from a supernatant of the culture medium (FIG. 8). Virus infection was caused by co-culture of the virus particles and NALL1 cells to introduce the siRNA into the cells and the siRNA is expressed. GFP was simultaneously expressed in the cells into which the siRNA was introduced by the pLL3.7 vector. Therefore, expression of the CD43 antigen and sialyl Lewis x and the selectin binding ability of the cells in which the GFP expression was observed, i.e. of the cells in which siRNA was expressed, were analyzed by using the antibody MEM59 (product of Monosan) for CD43, sialyl Lewis x antibody CSLEX1, and human chimera-Fc-Ig-E- or P-selectin with the use of a flow cytometer. As a result, in introduction of vacant vector (pLL3.7), a high rate of the CD43 expression was observed irrelevant from GFP positive or negative.
Benzyl-α-N-acetylgalactosamine (Bz-α-GalNAc; product of Sigma-Aldrich Japan, K.K.) which is one of sugar chain synthesis inhibiting agents was added to a culture supernatant of NALL1 cells to detect its binding ability to selectin. Benzyl-α-N-acetylgalactosamine is subject to sugar chain modification like N-acetylgalactosamine added to serine and threonine of a protein when taken into a cell. Therefore, since the original sugar chain modification to a glycoprotein is suppressed by an addition of an excessive amount of benzyl-α-N-acetylgalactosamine, benzyl-α-N-acetylgalactosamine is used as an O-linked sugar chain synthesis inhibiting agent. After adding 4 mM of benzyl-α-N-acetylgalactosamine to the culture supernatant of NALL1 cells, expressions of the CD43 antigen and sialyl Lewis x and binding ability to E- and P-selectin were detected by a flow cytometer after 3 day-culture. […]

P-selectin = P-selectin binding ability of NALL1 cells by flow cytometer (human chimera-Fc-Ig-P-selectin); type: cell-based
From the text: (§1) Likewise, a binding ability to E-selectin and P-selectin was confirmed in flow cytometer through fluorescence intensity and distribution of cell count measured by using a recombinant protein (human chimera-Fc-Ig-E-selectin or human chimera-Fc-Ig-P-selectin; product of R & D Systems) in accordance with the method descried in Blood, 104, 3091-3096 (2004). […] Rightward shifting in the histogram means an increase in the fluorescence intensity, i.e. binding ability to selectin.
(§2) These siRNAs were expressed in cells to confirm the effects. […] Therefore, expression of the CD43 antigen and sialyl Lewis x and the selectin binding ability of the cells in which the GFP expression was observed, i.e. of the cells in which siRNA was expressed, were analyzed by using the antibody MEM59 (product of Monosan) for CD43, sialyl Lewis x antibody CSLEX1, and human chimera-Fc-Ig-E- or P-selectin with the use of a flow cytometer. […]
(§3) Benzyl-α-N-acetylgalactosamine (Bz-α-GalNAc; product of Sigma-Aldrich Japan, K.K.) which is one of sugar chain synthesis inhibiting agents was added to a culture supernatant of NALL1 cells to detect its binding ability to selectin. […] After adding 4 mM of benzyl-α-N-acetylgalactosamine to the culture supernatant of NALL1 cells, expressions of the CD43 antigen and sialyl Lewis x and binding ability to E- and P-selectin were detected by a flow cytometer after 3 day-culture. […]

E-selectin = E-selectin binding ability of NALL1 cells by flow cytometer (human chimera-Fc-Ig-E-selectin); type: cell-based
From the text: as §1, §2, §3

sialyl Lewis x = assay: Sialyl Lewis x expression in NALL1 cells by flow cytometer (CSLEX1 antibody); type: cell-based, human
From the text: Fluorescence intensity and distribution of cell count of a sialyl Lewis x sugar chain antigen which is a major selectin ligand sugar chain were confirmed in flow cytometer by using a CSLEX antibody (antibody specifically recognizing the sialyl Lewis x structure; product of Becton, Dickinson and Company) to which a tandem dye APC-Cy7 was bound in accordance with a method described in J. Biol. Chem., 273, 41, 26779-26789 (1998). Rightward shifting in the histogram means an increase in the fluorescence intensity, i.e. an amount of expression of sialyl Lewis x.
These siRNAs were expressed in cells to confirm the effects. For introduction of siRNA into cells, a lentivirus system (product of Invitrogen Corporation) which is able to gene introduction into blood cells at high efficiency and an expression vector for lentivirus pLL3.7 (Nat. Genet., 33, 401-406 (2003)) were used. In the pLL3.7 vector, it is possible to introduce a sense/antisense siRNA sequence including a hair-pin structure downstream of a U6 promoter. […] Therefore, expression of the CD43 antigen and sialyl Lewis x and the selectin binding ability of the cells in which the GFP expression was observed, i.e. of the cells in which siRNA was expressed, were analyzed by using the antibody MEM59 (product of Monosan) for CD43, sialyl Lewis x antibody CSLEX1, and human chimera-Fc-Ig-E- or P-selectin with the use of a flow cytometer. […]

[1] = siRNA introduced by lentivirus pLL3.7 vector (FIG. 10)

With CC(=O)N[C@H]1[C@@H](OCc2ccccc2)O[C@H](CO)[C@H](O)[C@@H]1O [benzyl-α-N-acetylgalactosamine, Benzyl-α-N-acetylgalactosamine, reference compound] the “expression of CD43 antigen” value (CD43 antigen; 4 mM, 3 day-culture) was “no change”, the “selectin binding ability (P-selectin)” value (P-selectin; 4 mM, 3 day-culture) was “almost lost” and the “selectin binding ability (E-selectin)” value (E-selectin; 4 mM, 3 day-culture) was “almost lost”. For the same molecule, the “sialyl Lewis x expression” value (sialyl Lewis x; 4 mM, 3 day-culture) was “remarkably reduced”.

B1: siCD43-#1-pLL3.7: siRNA for CD43 antigen in pLL3.7 lentivirus vector; CD43 sequence gtgaccctaaggccgacag (nucleic acid)
sense: TGTGACCCTAAGGCCGACAGTTCAAGAGACTGTCGGCCTTAGGGTCACTTTTTTC
antisense: TCGAGAAAAAAGTGACCCTAAGGCCGACAGTCTCTTGAACTGTCGGCCTTAGGGTCACA
modifications: shRNA oligos cloned in pLL3.7 lentivector
For B1, the CD43 expression (CD43 antigen) was “significant reduction”.

B2: siCD43-#5-pLL3.7: siRNA for CD43 antigen in pLL3.7 lentivirus vector; CD43 sequence gcgtaacggggtggtggac (nucleic acid)
sense: TGCGTAACGGGGTGGTGGACTTCAAGAGAGTCCACCACCCCGTTACGCTTTTTTC
antisense: TCGAGAAAAAAGCGTAACGGGGTGGTGGACTCTCTTGAAGTCCACCACCCCGTTACGCA
modifications: shRNA oligos cloned in pLL3.7 lentivector
In the case of B2, the CD43 expression (CD43 antigen) is reported as “significant reduction”.

B3: siCD43-#2-pLL3.7: siRNA for CD43 antigen in pLL3.7 lentivirus vector; CD43 sequence ggccgacagcactggggac (nucleic acid)
sense: TGGCCGACAGCACTGGGGACTTCAAGAGAGTCCCCAGTGCTGTCGGCCTTTTTTC
antisense: TCGAGAAAAAAGGCCGACAGCACTGGGGACTCTCTTGAAGTCCCCAGTGCTGTCGGCCA
modifications: shRNA oligos cloned in pLL3.7 lentivector
In the case of B3, the CD43 expression (CD43 antigen) is reported as “significant reduction”, the “selectin binding ability (P-selectin)” value (P-selectin; [1]) is reported as “remarkable reductions” and the “selectin binding ability (E-selectin)” value (E-selectin; [1]) is reported as “remarkable reductions”. The “sialyl Lewis x expression” value (sialyl Lewis x; [1]) was “remarkable reductions”.
